Test results: patent US20100166733A1

Target: MCP-1 (known wild type human MCP-1, commercial, R&D #279-MC) (human) (UniProt P13500)
Test: cell-based or functional assay

Chain of UniProt P13500 (P13500 24-99): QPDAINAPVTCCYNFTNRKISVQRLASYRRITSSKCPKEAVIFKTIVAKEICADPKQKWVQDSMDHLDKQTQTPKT

MCP-1-65-Fc variant (MCP-1 splice variant MCP-1-65 fused to mutated N297A human IgG1 Fc) (Fc fusion)
inhibition of MCP-1-induced THP-1 cell migration (transwell, cells counted by FACS), IC50: 400 pM | inhibition of MCP-1-induced THP-1 cell migration (transwell, cells counted by FACS), percent inhibition: < 90%
